Target: the molecule itself
Experiment: cross-linking

B1: Flag-PKM2 Y148F mutant (PKM2^Y148F) (enzyme)
chain: not shown
stoichiometry N: 4

Source: paper PMC4775355 (Cancer research, 2016)
